Data as given in patent US20190263882A1.
Read-outs that look alike come from different tables or passages of the source.

Assays:
RSV F protein = RSV F protein (UniProt P03420); assay: ELISA, 100 ng/well RSV F protein coated, HRP anti-human IgG (Fc specific), QuantaBlu fluorescence (10 min)
[1] = target: T1, hLGR7 (UL-hLGR7-Cre-Luc reporter cell line) (human ('hLGR7')) (UniProt Q9HBX9); assay: cell-based or functional assay
T1 sequence (looked up): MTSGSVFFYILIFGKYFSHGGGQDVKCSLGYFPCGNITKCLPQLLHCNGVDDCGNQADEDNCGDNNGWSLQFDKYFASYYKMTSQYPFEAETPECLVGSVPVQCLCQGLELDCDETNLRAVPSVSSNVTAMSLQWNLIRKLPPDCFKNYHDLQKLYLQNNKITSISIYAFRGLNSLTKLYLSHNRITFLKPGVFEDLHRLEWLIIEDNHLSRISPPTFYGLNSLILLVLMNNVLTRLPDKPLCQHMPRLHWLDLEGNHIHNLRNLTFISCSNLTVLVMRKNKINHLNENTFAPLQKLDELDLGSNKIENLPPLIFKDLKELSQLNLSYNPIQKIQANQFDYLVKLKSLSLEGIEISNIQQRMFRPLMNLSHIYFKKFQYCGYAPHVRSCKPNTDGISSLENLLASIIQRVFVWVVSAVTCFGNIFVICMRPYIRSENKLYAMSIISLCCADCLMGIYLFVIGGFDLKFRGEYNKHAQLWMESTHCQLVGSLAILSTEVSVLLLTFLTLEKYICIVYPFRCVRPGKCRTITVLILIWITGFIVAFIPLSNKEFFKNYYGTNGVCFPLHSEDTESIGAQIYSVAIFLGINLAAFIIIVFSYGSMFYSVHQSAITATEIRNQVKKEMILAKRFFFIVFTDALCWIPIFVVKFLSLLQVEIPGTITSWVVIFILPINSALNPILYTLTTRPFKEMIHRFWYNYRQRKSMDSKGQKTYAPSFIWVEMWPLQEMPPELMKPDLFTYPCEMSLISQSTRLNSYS

relaxin receptor (LGR7) [2] = target: T2, relaxin receptor (LGR7); assay: cell-based or functional assay
T2 sequence (Q9HBX9 whole entry, species assumed, looked up): T1 sequence (looked up)

relaxin receptor (LGR7) [3] = target: T2, relaxin receptor (LGR7); assay: cell-based or functional assay; remark: listed apart in the source

RSV F protein, sequence (P03420 26-524): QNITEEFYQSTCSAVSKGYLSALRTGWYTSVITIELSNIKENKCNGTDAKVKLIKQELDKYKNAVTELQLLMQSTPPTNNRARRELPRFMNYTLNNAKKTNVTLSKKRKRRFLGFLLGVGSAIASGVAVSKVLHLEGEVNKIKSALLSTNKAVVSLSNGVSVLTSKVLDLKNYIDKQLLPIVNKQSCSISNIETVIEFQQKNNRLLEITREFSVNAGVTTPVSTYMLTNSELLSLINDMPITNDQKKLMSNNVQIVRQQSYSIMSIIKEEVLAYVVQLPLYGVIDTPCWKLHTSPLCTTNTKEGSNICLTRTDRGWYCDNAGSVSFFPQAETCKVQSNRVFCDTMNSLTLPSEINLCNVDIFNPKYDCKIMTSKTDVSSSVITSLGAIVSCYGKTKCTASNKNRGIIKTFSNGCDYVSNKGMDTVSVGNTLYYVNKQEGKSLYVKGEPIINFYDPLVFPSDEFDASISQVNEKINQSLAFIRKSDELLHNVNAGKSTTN

Row | Substance | Kd (RSV F protein) [nM] | EC50, UL-hLGR7-Cre-Luc reporter cell line [1] [nM] | SA [1] [units/µg] | EC50, CRE-luciferase reporter assay (relaxin receptor (LGR7) [2]) [nM] | EC50, CRE-luciferase reporter assay (relaxin receptor (LGR7) [3]) [nM]
1 | Herceptin (antibody) | 1350 |  |  |  | 
2 | relaxin-2 peptide (from UniProt P04090 25-185) (ligand) |  | 0.02 | 1000 | 0.0223 | 0.022
